Laboratory results from patent US20040091465A1, “Therapeutic antiangiogenic compositions and methods” (priority 2002, published 2004).

Tests used:
[1] = system: bovine capillary endothelial cells; experiment: Bovine capillary endothelial (BCE) cell proliferation assay, 72 hours, bFGF; assay type: cell-based
Protocol: To further characterize the 20 kDa inhibitor, we tested it on several cell lines of endothelial and non-endothelial origin. For the BCE assay, bovine capillary endothelial cells were obtained and grown as previously described (Folkman et al., 1979). For the proliferation assay, cells were washed with PBS and dispersed in a 0.05% solution of trypsin. A cell suspension (25,000 cells/ml) was made with DMEM+10% BCS+1% GPS, plated onto gelatinized 24-well culture plates ([…]), and incubated (37° C., 10% CO2) for 24 hours. The media was replaced with 0.25 ml of DMEM+5% BCS+1% GPS and the test sample applied. After 20 minutes of incubation, media and bFGF were added to obtain a final volume of 0.5 ml of DMEM+5% BCS+1% GPS+1 ng/ml bFGF. After 72 hours, cells were dispersed in trypsin, resuspended in Hematall (Fisher Scientific, Pittsburgh, Pa.), and counted by Coulter counter.

[2] = system: Bovine aortic smooth muscle cells; experiment: Non-endothelial cell proliferation assay, SMC; assay type: cell-based; settings: 72 hours
Protocol: (§1) Bovine aortic smooth muscle (SMC), bovine retinal pigment epithelial (RPE), mink lung epithelial (MLE), Lewis lung carcinoma (LLC), and EOMA cells and 3T3 fibroblasts were maintained in a 10% CO2 and 37° C. incubator. For the proliferation assays, cells were washed with PBS and were dispersed in a 0.05% solution of trypsin. Optimal conditions for the cell proliferation assays were established for each different cell type. Fetal calf serum (FCS) was used for the RPE, MLE, and LLC cells and BCS was used for the other cell types. A cell suspension (20,000 cells/ml for SMC, RPE, MLE; 15,000 cells/ml for 3T3; 10,000 cells/ml for LLC, EOMA) was made with DMEM+10% bovine serum+1% GPS, plated onto 24 well culture plates (0.5 ml/well), and incubated (37° C., 10% C02) for 24 hours. The media was replaced with 0.5 ml of DMEM+5% bovine serum+1% GPS and the test sample applied. After 72 hours, cells were dispersed in trypsin, resuspended in Hematall (Fisher Scientific, Pittsburgh, Pa.), and counted by Coulter counter.

[3] = system: Bovine retinal pigment epithelial cells; experiment: Non-endothelial cell proliferation assay, RPE; assay type: cell-based; settings: 72 hours
Protocol: as §1

3T3 fibroblasts = experiment: Non-endothelial cell proliferation assay, 3T3; assay type: cell-based; settings: 72 hours
Protocol: as §1

[4] = system: Mink lung epithelial cells; experiment: Non-endothelial cell proliferation assay, MLE; assay type: cell-based; settings: 72 hours
Protocol: as §1

[5] = system: EOMA hemangioendothelioma cells; experiment: Non-endothelial cell proliferation assay, EOMA; assay type: cell-based, murine; settings: 72 hours
Protocol: as §1

[6] = system: Lewis Lung carcinoma cells; experiment: Non-endothelial cell proliferation assay, LLC; assay type: cell-based; settings: 72 hours
Protocol: as §1

[7] = system: cells of non-endothelial origin; experiment: Non-endothelial cell proliferation assays, stated for all lines together; assay type: cell-based; settings: doses 1 log unit higher than those used to inhibit capillary endothelial cell proliferation
Protocol: as §1

[8] = system: Lewis lung carcinoma primary tumors; experiment: Systemic therapy of Lewis lung carcinoma primary tumors; assay type: in vivo, mice; settings: 20 mg/kg/day, FIG. 11

Row | Molecule | Dose at which inhibition of endothelial cell proliferation was first observed ([1]; 72 hour BCE assay) [ng/mL] | Dose giving maximal inhibition of endothelial cell proliferation ([1]; 72 hour BCE assay) [ng/mL] | Effect on bovine capillary endothelial cell proliferation ([1]; 72 hour proliferation assay, 1 ng/ml bFGF) | Effect on bovine aortic smooth muscle cell proliferation [2] | Effect on bovine aortic smooth muscle cell proliferation ([2]; listed as ENDOSTATIN) | Effect on bovine retinal pigment epithelial cell proliferation [3] | Effect on 3T3 fibroblast proliferation (3T3 fibroblasts) | Effect on 3T3 fibroblast proliferation (3T3 fibroblasts; listed as ENDOSTATIN) | Effect on mink lung epithelial cell proliferation [4] | Effect on EOMA hemangioendothelioma cell proliferation [5] | Effect on EOMA hemangioendothelioma cell proliferation ([5]; listed as ENDOSTATIN) | Effect on Lewis lung carcinoma cell proliferation [6] | Effect on Lewis lung carcinoma cell proliferation ([6]; listed as ENDOSTATIN) | Inhibition of proliferation of cells of non-endothelial origin [7] | Inhibition of Lewis lung carcinoma tumor growth by human endostatin [8]
1 | endostatin: 20 kDa inhibitor of endothelial cell proliferation purified from EOMA conditioned media; C-terminal fragment of collagen XVIII NC1 domain (protein, listed as Homo sapiens) HSHRDFQPVLHLVALNSPLSGGMRGIRGADFQCFQQARAVGLAGTFRAFLSSRLQDLYSIVRRADRAAVPIVNLKDELLFPSWEALFSGSEGPLKPGARIFSFDGKDVLRHPTWPQKSVWHGSDPNGRRLTESYCETWRTEAPSATGQASSLLGGRLLGQSAASCHHAYIVLCIENSFMTASK | 100 | ≥ 600 | INHIBITED | no effect | NON-INHIBITED | NON-INHIBITED | no effect | NON-INHIBITED | NON-INHIBITED | no effect | NON-INHIBITED | no effect | NON-INHIBITED | No significant inhibition | –
2 | endostatin derived from human: recombinant endostatin from the human sequence, produced in E. coli (protein, listed as Homo sapiens) HSHRDFQPVLHLVALNSPLSGGMRGIRGADFQCFQQARAVGLAGTFRAFLSSRLQDLYSIVRRADRAAVPIVNLKDELLFPSWEALFSGSEGPLKPGARIFSFDGKDVLRHPTWPQKSVWHGSDPNGRRLTESYCETWRTEAPSATGQASSLLGGRLLGQSAASCHHAYIVLCIENSFMTASK | – | – | – | – | – | – | – | – | – | – | – | – | – | – | effectiveness
